{"source": "patent US20220218834A1", "about": "“APOHEMOGLOBIN-HAPTOGLOBIN COMPLEXES AND METHODS OF USING THEREOF” (OHIO STATE INNOVATION FOUNDATION, priority 2019, published 2022)", "molecules": {"B1": {"name": "Hpx: hemopexin, plasma heme scavenging protein (protein, UniProt P02790 24-462, looked up)", "Hemopexin": "TPLPPTSAHGNVAEGETKPDPDVTERCSDGWSFDATTLDDNGTMLFFKGEFVWKSHKWDRELISERWKNFPSPVDAAFRQGHNSVFLIKGDKVWVYPPEKKEKGYPKLLQDEFPGIPSPLDAAVECHRGECQAEGVLFFQGDREWFWDLATGTMKERSWPAVGNCSSALRWLGRYYCFQGNQFLRFDPVRGEVPPRYPRDVRDYFMPCPGRGHGHRNGTGHGNSTHHGPEYMRCSPHLVLSALTSDNHGATYAFSGTHYWRLDTSRDGWHSWPIAHQWPQGPSAVDAAFSWEEKLYLVQGTQVYVFLTKGGYTLVSGYPKRLEKEVGTPHGIILDSVDAAFICPGSSRLHIMAGRRLWWLDLKSGAQATWTELPWPHEKVDGALCMEKSLGPNSCSANGPGLYLIHGPNLYCYSDVEKLNAAKALPQPQNVTSLLGCTH"}}, "key": {"[1]": {"assay": "O2 equilibrium binding curves of rHb and native Hb (Hemox analyzer)", "type": "biochemical", "details": "37° C.; for P50: O2 affinity; for N (cooperativity coefficient n): O2 equilibrium", "protocol": "rHb Analysis. Various liganded forms of rHb were analyzed via UV-Vis spectroscopy and compared against native Hb. The oxy-rHb and oxyHb equilibrium binding curves were measured using a Hemox analyzer (TCS Scientific Corp., New Hope, Pa.) at 37° C. The spectra of rHb was measured after one day reaction with excess heme (stage 1), after reduction and diafiltration with the modified HEMOX buffer (stage 2), after placing the rHb mixture under a CO atmosphere (stage 3), after heating the CO-rHb mixture and removing precipitate (stage 4), and after re-oxygenating the rHb sample (stage 5). Spectral deconvolution software was developed in the Python programming language (Python Software Foundation Beaverton, Oreg.) using the non-linear least squares function curve_fit of the SciPy package to determine the fraction of various liganded forms of rHb that contribute to the final spectra of the rHb mixture (i.e. containing metHb, hemichrome, oxyHb, HbCO and heme)."}, "acellular human Hb": {"biological_target": "T1, acellular human Hb (Homo sapiens, UniProt P68871+P69905)", "T1 construct": "Expired units of human red blood cells were generously donated; from tissue; host or cells: expired human red blood cell units; purified in house by tangential flow filtration", "T1 sequence (P69905 2-142 limits assumed)": "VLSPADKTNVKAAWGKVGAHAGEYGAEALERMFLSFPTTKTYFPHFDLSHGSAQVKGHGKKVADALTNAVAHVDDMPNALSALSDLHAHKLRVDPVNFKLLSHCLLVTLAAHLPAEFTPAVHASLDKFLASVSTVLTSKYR", "T1 sequence (P68871 2-147 limits assumed)": "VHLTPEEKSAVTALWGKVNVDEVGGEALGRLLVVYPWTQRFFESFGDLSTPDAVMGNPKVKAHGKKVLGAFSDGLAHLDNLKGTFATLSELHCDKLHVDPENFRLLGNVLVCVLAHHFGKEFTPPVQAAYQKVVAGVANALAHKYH", "assay": "Vascular response to acellular Hb after pretreatment, hamster dorsal window chamber", "type": "in vivo, Golden Syrian Hamsters", "protocol": "Studies were performed in 55-65 g male Golden Syrian Hamsters (Charles River Laboratories, Boston, Mass.) fitted with a dorsal window chamber. The hamster window chamber model is widely used for microvascular studies without anesthesia. The complete surgical technique has been described previously. Two days after window implantation, arterial and venous catheters filled with heparinized saline solution (30 IU/mL) were implanted into the carotid and jugular vessels. Catheters were tunneled under the skin, exteriorized at the dorsal side of the neck, and securely attached to the window frame.\nThe unanesthetized animal was placed in a restraining tube with a longitudinal slit from which the window chamber protruded, then fixed to the microscopic stage for transillumination with the intravital microscope (BX51WI, Olympus, Japan). Animals were given 20 minutes to adjust to the tube environment and images were obtained using a CCD camera (4815, COHU, San Diego, Calif.). […]\nThe MAP and HR were monitored continuously (MP150, Biopac System Inc., Santa Barbara, Calif.). Hct was measured from centrifuged arterial blood samples taken in heparinized capillary tubes. Hb content was determined spectrophotometrically (B-Hemoglobin, Hemocue, Stockholm, Sweden). Arterial blood was collected in heparinized glass capillaries (50 μL) and immediately analyzed for pO2, pCO2, and pH (ABL90; Radiometer America, Brea, Calif.). Arterial Hb saturation was measured using an IL482 CO-Oximeter (Instrumentation Laboratory, Lexington, Mass.).\nArteriolar and venular blood flow velocities were measured using the photodiode cross-correlation method (Photo-Diode/Velocity, Vista Electronics, San Diego, Calif.). The measured centerline velocity (V) was corrected according to blood vessel size to obtain the mean RBC velocity. […] Blood flow (Q) was calculated from the measured values as Q=π/4D^2 V.\nFunctional capillaries, defined as capillary segments that have transit of at least one RBC in a 60 second period in 10 successive microscopic fields, were assessed in a region of 0.46 mm^2. […]"}, "[2]": {"assay": "ApoHb stability during storage (DCNh activity assay, total protein, RP-HPLC)", "type": "physicochemical", "details": "for effect of time on apoHb activity or total protein: stored at −80° C.", "protocol": "The extinction coefficients of DCNh and rHbCN were 85 mM^−1 cm^−1 and 114 mM^−1 cm^−1, respectively.\nThree TFF-apoHb batches were prepared. […] These groups consisted of unconcentrated, concentrated and lyophilized apoHb. […] The remainder of the batch was either sent to be lyophilized or to be concentrated to […]. […] The lyophilized powder was stored in a closed container at −80° C. […] These time intervals were chosen to capture relevant changes in activity at each storage condition. […] Thus, after initial measurements on a weekly basis, the insignificant changes lead to longer intervals between measurements. Statistical analysis was performed on JMP Pro v 12.2.2 (SAS Institute, Cary, N.C.) and measured concentrations were compared to the initial time point values of each batch. A linear fit with the logarithmic value of the concentration was used to examine the effect of time with the ANOVA test. For time point differences, time was considered as discrete and the TUKEY HSD test was performed.\nReverse Phase Chromatography. Reverse phase (RP) chromatography was performed with a BioBasic-18 column (Thermo Scientific, Waltham, Mass.) on a Thermo Scientific Dionex Ultimate UHPLC system. The flow rate of the mobile phase was set to 0.75 mL/min. The column was equilibrated with 35% acetonitrile and 65% TFA (0.5 wt %, pH 2.6) for 10 minutes. The gradient was then shifted to 43% acetonitrile over a 1 minute interval. The protein was eluted with an increasing linear gradient of 43 to 47% acetonitrile for 30 minutes. The column was then held at 47% acetonitrile for 20 minutes."}, "[3]": {"assay": "Specificity of Al-PC binding to proteins (UV-visible absorbance at 680 nm)", "details": "absorbance at 680 nm after Al-PC addition in PBS", "method": "The stock Al-PC solution was diluted 100× into 100% EtOH.\nThe concentrations of Hp, HSA, Hb and rHb in solution were 1.0 mg/mL, 0.35 mg/ml (and 3.5 mg/ml), 0.35 mg/mL, and 0.33 mg/mL respectively."}, "PolyHb": {"biological_target": "T2, PolyHb (Homo sapiens, UniProt P68871+P69905)", "T2 construct": "from tissue; host or cells: human red blood cells; Hb purified and polymerised in house", "T2 sequence (P69905 2-142 limits assumed)": "as the sequence (P69905 2-142 limits assumed) above", "T2 sequence (P68871 2-147 limits assumed)": "as the sequence (P68871 2-147 limits assumed) above", "assay": "20% isovolemic exchange transfusion of PolyHb after pretreatment, hamster window chamber", "type": "in vivo, Golden Syrian Hamsters", "protocol": "Additionally, animals with signs of low perfusion, inflammation, edema, or bleeding in their microvasculature were excluded from the study. Prior to treatment, baseline systemic parameters and microvascular hemodynamics were assessed. […] 20 minutes following the initial treatment, the systemic parameters and microvascular hemodynamics were assessed. Afterward, the animals underwent a 20 percent isovolemic exchange transfusion with a 10 g/dL PolyHb solution. After another 20 minutes, the systemic parameters and microvascular hemodynamics were measured. Mean arterial pressure (MAP) and heart rate (HR) were monitored continuously (MP150, Biopac System Inc., Santa Barbara, Calif.). The sample size of 5 animals per group was calculated based on an expected 10% difference in mean arterial pressure between groups, an α=0.05, and […], and equal enrollment for all groups. Additionally, microhemodynamic measurements contain data from multiple vessels within the field (5-7 arterioles and venules selected at baseline based on visual clarity), improving the power of these measurements. Each experiment is a repeated measures study, so all experimental timepoints are replicated between all animals and groups. Furthermore, each experimental group contains animals from different litters, improving the replication of these studies. Animals were randomly assigned to their respective group before baseline measurements were taken. Each group contains animals from multiple litters of hamsters to improve randomization. Investigators were not blinded to group allocation during data collection or analysis. Blinding is not possible with these solutions as they have distinct colors. Measurements taken are highly quantitative, so blinding should have little impact.\nThe unanesthetized animal was placed in a restraining tube with a longitudinal slit from which the window chamber protruded, then fixed to the microscopic stage for transillumination with the intravital microscope (BX51WI, Olympus, New Hyde Park, N.Y.). […] Measurements were carried out using a 40× (LUMPFL-WIR, numerical aperture 0.8, Olympus) water immersion objective.\nArteriolar and venular blood flow velocities were measured using the photodiode cross-correlation method (Photo-Diode/Velocity, Vista Electronics, San Diego, Calif.). The measured centerline velocity (V) was corrected according to blood vessel size to obtain the mean RBC velocity. A video image-shearing method was used to measure blood vessel diameter (D). Blood flow (Q) was calculated from the measured values as\nFunctional capillaries, defined as capillary segments that have RBC transit of at least one RBC in a 60 second period in 10 successive microscopic fields, were assessed in a region of 0.46 mm^2. FCD (mm^−1) is calculated as the total length of RBC perfused capillaries divided by the area (0.46 mm^2)."}, "β-thalassemic mice": {"system": "β-thalassemic mice", "details": "cited from earlier work"}}, "note": "Values joined by “and” are separate entries in the source; they are usually repeats but may differ in a detail not shown here. Equal values may be shown once. Marks after values point to notes of the source that are not given here.", "data": [{"molecule": "TFF rHb Concentrated: reconstituted Hb made from concentrated TFF-apoHb", "values": [{"measurement": "P50", "setting": "[1]", "value": "11.36 ± 0.87", "unit": "mm Hg"}, {"measurement": "P50", "setting": "[1]; listed as concentrated rHb", "value": "11.36±0.87", "unit": "mm Hg"}, {"measurement": "N (cooperativity coefficient n)", "setting": "[1]", "value": "2.14 ± 0.17^a"}, {"measurement": "N (cooperativity coefficient n)", "setting": "[1]; listed as concentrated rHb", "value": "2.14±0.17"}]}, {"molecule": "apoHb: protein produced by removing heme from Hb; made via acidic ethanol tangential flow filtration", "values": [{"measurement": "MAP", "setting": "acellular human Hb; after acellular Hb 10% hypervolemic infusion", "value": "elevated MAP compared to baseline and pretreatment"}, {"measurement": "FCD", "setting": "acellular human Hb; after acellular Hb infusion", "value": "FCD decreased"}, {"measurement": "HR", "setting": "acellular human Hb; after acellular Hb infusion", "value": "statistically significant decrease in HR from baseline and pre-treatment"}, {"measurement": "loss of apoHb activity during long term storage", "setting": "[2]; 4° C., −80° C., and lyophilized form", "value": "Virtually no loss of apoHb activity"}, {"measurement": "total protein and activity in solution during storage", "setting": "[2]; 37° C., liquid", "value": "quickly lost total protein and activity in solution"}, {"measurement": "P50 and cooperativity coefficient after reconstitution into rHb", "setting": "[2]; apoHb stored at 4° C. for one month, vs reconstituted right after production", "value": "did not show any significant difference"}, {"measurement": "effect of time on apoHb activity or total protein", "setting": "[2]; lyophilized", "value": "did not show a significant effect of time on apoHb activity or total protein"}, {"measurement": "retention of total protein", "setting": "[2]; one-week storage at 22° C.", "value": "80-90%"}, {"measurement": "oxidative modifications (RP-HPLC)", "setting": "[2]; stored at 4° C. or at 22° C.", "value": "show an additional β-chain peak (βox)"}, {"measurement": "effect of time on activity", "setting": "[2]; stored at 4° C., unconcentrated", "value": "no significant differences were seen after day 10"}, {"measurement": "oxidative modifications (RP-HPLC)", "setting": "[2]; stored at −80° C. or lyophilized for over a year", "value": "no oxidative modifications were observed"}, {"measurement": "effect of time on apoHb activity or total protein", "setting": "[2]; both concentrations", "value": "no statistically significant effect of time on apoHb activity or total protein"}, {"measurement": "Al-PC binding", "setting": "[3]", "value": "Al-PC bound to apoHb and prevented Al-PC aggregation"}, {"measurement": "MAP", "setting": "PolyHb; after PolyHb exchange transfusion", "value": "significant increase in MAP"}, {"measurement": "FCD", "setting": "PolyHb; after PolyHb transfusion", "value": "FCD significantly decreased"}, {"measurement": "arteriole and venule diameter", "setting": "PolyHb; after PolyHb transfusion", "value": "significant decrease in relative arteriole and venule diameter compared to the baseline"}, {"measurement": "arteriole and venule fluid velocities and volumetric flow rates", "setting": "PolyHb; after PolyHb transfusion", "value": "the volumetric flow rate in the arterioles and venules decreased"}, {"measurement": "MAP or HR", "setting": "PolyHb; after administration, prior to transfusion of PolyHb", "value": "no significant effect on MAP or HR"}, {"measurement": "FCD", "setting": "PolyHb; after treatment, before PolyHb transfusion", "value": "significant increase in FCD"}]}, {"molecule": "TFF rHb: reconstituted Hb made from TFF-apoHb and heme", "values": [{"measurement": "Al-PC binding", "setting": "[3]", "value": "no appreciable binding of Al-PC"}, {"measurement": "P50", "setting": "[1]", "value": "11.52±0.02 mm Hg and 11.20 ± 0.43 mm Hg"}, {"measurement": "P50", "setting": "[1]; listed as unconcentrated rHb", "value": "11.20±0.43", "unit": "mm Hg"}, {"measurement": "N (cooperativity coefficient n)", "setting": "[1]; listed as unconcentrated rHb", "value": "2.27±0.10"}]}, {"molecule": "B1", "values": [{"measurement": "RBC levels", "setting": "β-thalassemic mice; Hpx treatment alone", "value": "did not improve RBC levels"}, {"measurement": "iron levels in the liver", "setting": "β-thalassemic mice; one month of Hpx treatment alone", "value": "increased iron levels in the liver"}]}]}
